Assay results: patent publication US20260053961A1, “HETERODIMER AND RADIOACTIVE MEDICAL USE THEREOF” (HEXIN (SUZHOU) PHARMACEUTICAL TECHNOLOGY CO., LTD., priority 2022, published 2026)

Tests used:
[1] = Stability study: in vitro incubation at constant temperature (37° C.) in murine plasma, LC-MS/MS; type: in vitro ADME
Procedure: (§1) The experiment was carried out by using an in vitro incubation method at a constant temperature (37° C.) to study the stability of the compound ([…]) from Example L11 in murine plasma or PBS. The compound obtained from Example L11 was dissolved in 1 mL of mouse serum, respectively, and incubated in vitro at a constant temperature for 0 h, 0.5 h, 1 h, 4 h, 24 h, and 48 h, and a percentage of drug remaining was then measured and determined. PBS was used as a negative control group. Peak areas of the drug and an internal standard were measured using an LC-MS/MS method, and ratios of the peaks were used instead of the drug concentration for calculation.

[2] = Stability study: in vitro incubation at constant temperature (37° C.) in PBS, LC-MS/MS; type: physicochemical
Procedure: as §1

[3] = PET/CT imaging of ^68Ga complexes in small animals; type: in vivo, NCr nude mice; conditions: NCr nude, mouse, in vivo, iv, 100 uCi, total radioactivity
Procedure: (§2) BxPC3 human pancreatic cancer cells are suspended in a mixture of 200 μL phosphate buffer and matrix gel (v/v, 1/1), and 2×10^6 cells were implanted subcutaneously into left shoulders of normal NCr nude mice (18-25 g, 4-6 weeks old). After an average of 1.5 weeks, a tumor diameter reached about 10 mm, which was sufficient for biodistribution and single-photon emission computed tomography-computed tomography (SPECT/CT) imaging studies.
(§3) PET-CT and image analysis were performed using a small-animal NovelMedcal PET-CT scanner (Beijing Yongxin). Maximum tangential and radial half-widths of the scanner in a center of field of view were 1.5 mm, and at an edge of the field of view were 1.8 mm.
(§4) About 100 μCi of each of the following complexes: ^68Ga-L00, ^68Ga-L11, ^68Ga-L12, ^68Ga-L13, and ^68Ga-L21, was injected into BxPC3 tumor-bearing mice via tail vein under isoflurane anesthesia, and each of the complexes was injected into four mice. Static PET-CT images were obtained for 15 min 0.5, 1, 2, 3, 4, 5 and 6 hours after intravenous injection. Distribution patterns of the five complexes at each time point were compared.
(§5) PET and CT images were acquired using NMSoft workstation software (Beijing Yongxin), and data were given as a percentage of injected dose per gram of tissue or organ (ID/g), and were determined through decay correction for each sample (standardized to a known weight of the injected dose. Normalization was performed during statistical analysis, and standardized uptake values (SUVs) were calculated according to the following formula: […]

[4] = tested on: BxPC3 tumor-bearing mice; assay: PET/CT imaging of ^68Ga complexes in small animals; type: in vivo, NCr nude mice
Procedure: as §2, §3, §4, §5

Question: With `C[C@@H](O)[C@@H]1NC(=O)[C@H](CCCNC(=N)N)NC(=O)CNC(=O)[C@H](CC(N)=O)NC(=O)[C@H](Cc2ccc(O)cc2)NC(=O)[C@H](CCCCNC(=O)CCOCCOCCOCCOCCNC(=O)OCC2C3CCc4nnn(CCC(C(=O)N[C@@H](CCCCNC(=O)CCC(=O)N[C@@H](CCCCNC(=O)CCCc5ccc(C(F)(F)F)cc5)C(=O)O)C(=O)NCCOCCOCCOCCOCCC(=O)NCCCC[C@@H]5NC(=O)[C@@H](Cc6ccccc6)NC(=O)[C@H](CC(=O)O)NC(=O)CNC(=O)[C@H](CCCNC(=N)N)NC5=O)N5CCN(CC(=O)O)CCN(CC(=O)O)CCN(CC(=O)O)CC5)c4CCC32)NC1=O` (single isomer, unassigned) [Example L11, RGD-PEG4-Lys (—R—R1)-DOTA-click-PEG4-NGR] as the compound, how does the remaining at 0.5 h, 1 g/mL ([1]; mouse, mouse plasma, murine plasma, 37° C., 0.5 h, read-out: Percentage of drug remaining) read?
Answer: 98.5%

Question: What about the remaining at 1 h, 1 g/mL ([1]; mouse, mouse plasma, murine plasma, 37° C., 1 h, read-out: Percentage of drug remaining) of the same compound?
Answer: 98.4%

Question: And the remaining at 4 h, 1 g/mL ([1]; mouse, mouse plasma, murine plasma, 37° C., 4 h, read-out: Percentage of drug remaining)?
Answer: 98%

Question: What about the remaining at 24 h, 1 g/mL ([1]; mouse, mouse plasma, murine plasma, 37° C., 24 h, read-out: Percentage of drug remaining) of the same compound?
Answer: 93.4%

Question: What about the remaining at 48 h, 1 g/mL ([1]; mouse, mouse plasma, murine plasma, 37° C., 48 h, read-out: Percentage of drug remaining) of the same compound?
Answer: 86.5%

Question: What about the “Percentage of drug remaining (summary statement)” value ([1]; murine plasma or PBS, in vitro incubation at constant temperature, over the study) of the same compound?
Answer: above 95%

Question: And the “Percentage of drug remaining” value ([1]; murine plasma, 37° C., 0 h)?
Answer: 100%

Question: What about the “Percentage of drug remaining” value ([2]; 0 h) of the same compound?
Answer: 100%

Question: And the remaining at 0.5 h, 1 g/mL ([2]; 0.5 h, read-out: Percentage of drug remaining)?
Answer: 99.3%

Question: And the remaining at 1 h, 1 g/mL ([2]; 1 h, read-out: Percentage of drug remaining)?
Answer: 98.7%

Question: What about the remaining at 4 h, 1 g/mL ([2]; 4 h, read-out: Percentage of drug remaining) of the same compound?
Answer: 98.6%

Question: And the remaining at 24 h, 1 g/mL ([2]; 24 h, read-out: Percentage of drug remaining)?
Answer: 98.3%

Question: And the remaining at 48 h, 1 g/mL ([2]; 48 h, read-out: Percentage of drug remaining)?
Answer: 97.9%

Question: With `C[C@@H](O)[C@@H]1NC(=O)[C@H](CCCNC(=N)N)NC(=O)CNC(=O)[C@H](CC(N)=O)NC(=O)[C@H](Cc2ccc(O)cc2)NC(=O)[C@H](CCCCNC(=O)CCOCCOCCOCCOCCNC(=O)OCC2C3CCc4nnn(CCC(C(=O)N[C@@H](CCCCNC(=O)CCC(=O)N[C@@H](CCCCNC(=O)CCCc5ccc(C(F)(F)F)cc5)C(=O)O)C(=O)NCCOCCOCCOCCOCCC(=O)NCCCC[C@@H]5NC(=O)[C@@H](Cc6ccccc6)NC(=O)[C@H](CC(=O)O)NC(=O)CNC(=O)[C@H](CCCNC(=N)N)NC5=O)N5CCN(CC(=O)O)CCN(CC(=O)O)CCN(CC(=O)O)CC5)c4CCC32)NC1=O` (single isomer, unassigned) [^68Ga-L11, metal not drawn] as the compound, how does the tissue to tissue ratio at 6 h ([3]; about 6 hours after the injection, PET/CT, read-out: tumor-to-kidney ratio) read?
Answer: ~1.4

Question: What about the “tumor-to-kidney ratio, rank among the five complexes” value ([4]; MIP images and ROI regions) of the same compound?
Answer: highest among the five conjugates

Question: And the “tumor-to-muscle ratio, rank among the five complexes” value ([4]; MIP images and ROI regions)?
Answer: highest among the five conjugates

Question: What does the source list for `C[C@@H](O)[C@@H]1NC(=O)[C@H](CCCNC(=N)N)NC(=O)CNC(=O)[C@H](CC(N)=O)NC(=O)[C@H](Cc2ccc(O)cc2)NC(=O)[C@H](CCCCNC(=O)CCOCCOCCOCCOCCNC(=O)OCC2C3CCc4nnn(CCC(C(=O)N[C@@H](CCCCNC(=O)CCC(=O)N[C@@H](CCCCN)C(=O)O)C(=O)NCCOCCOCCOCCOCCC(=O)NCCCC[C@@H]5NC(=O)[C@@H](Cc6ccccc6)NC(=O)[C@H](CC(=O)O)NC(=O)CNC(=O)[C@H](CCCNC(=N)N)NC5=O)N5CCN(CC(=O)O)CCN(CC(=O)O)CCN(CC(=O)O)CC5)c4CCC32)NC1=O` (stereo partly shown) [^68Ga-L00, metal not drawn]?
Answer: tissue to tissue ratio at 2 h [3]: ~0.18; clearance of the drug ([4]; mouse, in vivo): rapidly metabolized through the kidneys; signals in the tumor tissue over time ([4]; mouse, in vivo, iv): gradually weakened
